Reference: article PMC7498345 (Nucleic Acids Research, 2020)

molecular target: GST-PHF6 WT (UniProt Q8IWS0); assay: MST; conditions: not given

| Molecule | fold higher affinity than for the H2B WT peptide |
| --- | --- |
| H2B peptide (1:20) with K12Ac modification | 5 fold |

test system: H2BK120 of H2B WT-containing mono-nucleosomes; assay: In vitro ubiquitination assay, H2B-Flag WT mono-nucleosomes; assay type: biochemical; conditions: GST-PHF6 WT/MTs as E3; E1, E2, ubiquitin, 50 μM ZnCl2; 37°C, 1 h

| Molecule | E3 ubiquitin ligase activity for H2BK120 |
| --- | --- |
| C82A (protein, UniProt Q8IWS0 2-365, looked up, variant C82A) PHD finger protein 6: SSSVEQKKGPTRQRKCGFCKSNRDKECGQLLISENQKVAAHHKCMLFSSALVSSHSDNESLGGFSIEDVQKEIKRGTKLMASLCHCPGATIGCDVKTCHRTYHYHCALHDKAQIREKPSQGIYMVYCRKHKKTAHNSEADLEESFNEHELEPSSPKSKKKSRKGRPRKTNFKGLSEDTRSTSSHGTDEMESSSYRDRSPHRSSPSDTRPKCGFCHVGEEENEARGKLHIFNAKKAAAHYKCMLFSSGTVQLTTTSRAEFGDFDIKTVLQEIKRGKRMKCTLCSQPGATIGCEIKACVKTYHYHCGVQDKAKYIENMSRGIYKLYCKNHSGNDERDEEDEERESKSRGKVEIDQQQLTQQQLNGN | neither C82A (functional activity dead MT of extended PHD1 by disrupting Zinc ion capturing) nor E223S (H2BK12Ac unrecognizable MT of extended PHD2) were able to ubiquitinate H2BK120 |
| M125A (protein, UniProt Q8IWS0 2-365, looked up, variant M125A) PHD finger protein 6: SSSVEQKKGPTRQRKCGFCKSNRDKECGQLLISENQKVAAHHKCMLFSSALVSSHSDNESLGGFSIEDVQKEIKRGTKLMCSLCHCPGATIGCDVKTCHRTYHYHCALHDKAQIREKPSQGIYAVYCRKHKKTAHNSEADLEESFNEHELEPSSPKSKKKSRKGRPRKTNFKGLSEDTRSTSSHGTDEMESSSYRDRSPHRSSPSDTRPKCGFCHVGEEENEARGKLHIFNAKKAAAHYKCMLFSSGTVQLTTTSRAEFGDFDIKTVLQEIKRGKRMKCTLCSQPGATIGCEIKACVKTYHYHCGVQDKAKYIENMSRGIYKLYCKNHSGNDERDEEDEERESKSRGKVEIDQQQLTQQQLNGN | indispensable for E3 ligase activity of PHF6 |
| R129A (protein, UniProt Q8IWS0 2-365, looked up, variant R129A) PHD finger protein 6: SSSVEQKKGPTRQRKCGFCKSNRDKECGQLLISENQKVAAHHKCMLFSSALVSSHSDNESLGGFSIEDVQKEIKRGTKLMCSLCHCPGATIGCDVKTCHRTYHYHCALHDKAQIREKPSQGIYMVYCAKHKKTAHNSEADLEESFNEHELEPSSPKSKKKSRKGRPRKTNFKGLSEDTRSTSSHGTDEMESSSYRDRSPHRSSPSDTRPKCGFCHVGEEENEARGKLHIFNAKKAAAHYKCMLFSSGTVQLTTTSRAEFGDFDIKTVLQEIKRGKRMKCTLCSQPGATIGCEIKACVKTYHYHCGVQDKAKYIENMSRGIYKLYCKNHSGNDERDEEDEERESKSRGKVEIDQQQLTQQQLNGN | indispensable for E3 ligase activity of PHF6 |
| PHF6 WT: PHF6 WT expressed as GST fusion protein in E. coli Rosetta (DE3) cells (protein, labeled with the dye NT-647 (Cy5), in the MST only; left off: GST, end not stated, kept) MSSSVEQKKGPTRQRKCGFCKSNRDKECGQLLISENQKVAAHHKCMLFSSALVSSHSDNESLGGFSIEDVQKEIKRGTKLMCSLCHCPGATIGCDVKTCHRTYHYHCALHDKAQIREKPSQGIYMVYCRKHKKTAHNSEADLEESFNEHELEPSSPKSKKKSRKGRPRKTNFKGLSEDTRSTSSHGTDEMESSSYRDRSPHRSSPSDTRPKCGFCHVGEEENEARGKLHIFNAKKAAAHYKCMLFSSGTVQLTTTSRAEFGDFDIKTVLQEIKRGKRMKCTLCSQPGATIGCEIKACVKTYHYHCGVQDKAKYIENMSRGIYKLYCKNHSGNDERDEEDEERESKSRGKVEIDQQQLTQQQLNGN | able to ubiquitinate H2BK120 |
| E223S: H2BK12Ac unrecognizable MT of extended PHD2 (protein, labeled with the dye NT-647 (Cy5), in the MST only; left off: GST, end not stated, kept) MSSSVEQKKGPTRQRKCGFCKSNRDKECGQLLISENQKVAAHHKCMLFSSALVSSHSDNESLGGFSIEDVQKEIKRGTKLMCSLCHCPGATIGCDVKTCHRTYHYHCALHDKAQIREKPSQGIYMVYCRKHKKTAHNSEADLEESFNEHELEPSSPKSKKKSRKGRPRKTNFKGLSEDTRSTSSHGTDEMESSSYRDRSPHRSSPSDTRPKCGFCHVGEEENSARGKLHIFNAKKAAAHYKCMLFSSGTVQLTTTSRAEFGDFDIKTVLQEIKRGKRMKCTLCSQPGATIGCEIKACVKTYHYHCGVQDKAKYIENMSRGIYKLYCKNHSGNDERDEEDEERESKSRGKVEIDQQQLTQQQLNGN | neither C82A (functional activity dead MT of extended PHD1 by disrupting Zinc ion capturing) nor E223S (H2BK12Ac unrecognizable MT of extended PHD2) were able to ubiquitinate H2BK120 |
